Measurements: publication PMC10681173
Values belong to the substance of their own block, whether it stands above or below them.

Assays:
[1] = target: His6-tagged RMM; experiment: SEC; size-exclusion HPLC of TALON-purified samples
[2] = target: RMM BMC-H fused to GFP10 or GFP11 through the long linkers Lk30/27 (RMM-10/RMM-11, reference pair); experiment: split reporter (BiFC, NanoBiT); tripartite GFP in E. coli BL21(DE3) cells; single vector, all three partners on a single tricistronic mRNA; IPTG 10 uM from the start, 37°C
[3] = target: SUMO-RMM fused to GFP10 or GFP11 through the long linkers Lk30/27 (SUMO-RMM-GFP10, SUMO-RMM-GFP11); experiment: split reporter (BiFC, NanoBiT); tripartite GFP in E. coli BL21(DE3) cells; single vector, POI-10 and POI-11 on a bicistronic mRNA under T7p, GFP1-9 independent; IPTG 10 uM from the start, 37°C; Fmax relative to the RMM reference
[4] = target: RMM BMC-H fused to GFP10 or GFP11 through the long linkers Lk30/27 (RMM-10/RMM-11, reference pair); experiment: as above
[5] = target: K26D RMM single mutant fused to GFP10 or GFP11 (sm-RMM-10/11); experiment: tripartite GFP (tGFP) reconstitution, in-cell fluorescence Fmax; conditions: data collected over 16 h, induction from the culture start, read off a plot
[6] = target: K26D/N29D/A53D RMM triple mutant fused to GFP10 or GFP11 (tm-RMM-10/11); experiment: as above; conditions: data collected over 16 h, induction from the culture start, read off a plot
[7] = target: N29D/A53D RMM double mutant fused to GFP10 or GFP11 (dm-RMM-10/11); experiment: as above; conditions: data collected over 16 h, induction from the culture start, read off a plot
[8] = target: RMM BMC-H with GFP10 or GFP11 at the N-terminus (N-ter tagged RMM-10/11); experiment: split reporter (BiFC, NanoBiT); tripartite GFP in E. coli BL21(DE3) cells; single vector, POI-10 and POI-11 on a bicistronic mRNA under T7p, GFP1-9 independent; IPTG 10 uM from the start, 37°C; Fmax relative to the RMM reference
[9] = target: SUMO-RMM-His6; experiment: SEC; size-exclusion HPLC of TALON-purified samples
[10] = bicistron organization mode, parent: est. 103
[11] = independent-transcript organization mode, Lk30/27 linkers, parent: est. 100
[12] = tricistron organization mode, parent: est. 97

Substance: His6-tagged RMM (natural protein)
stoichiometry N [1]: 6

Substance: RMM BMC-H fused to GFP10 or GFP11 through the long linkers Lk30/27 (RMM-10/RMM-11, reference pair) K26D
percent of parent [5, 10]: 107% | percent of parent [5, 11]: 119%

Substance: RMM BMC-H fused to GFP10 or GFP11 through the long linkers Lk30/27 (RMM-10/RMM-11, reference pair) K26D; N29D; A53D
percent of parent [6, 10]: 39% | percent of parent [6, 11]: 41% | percent of parent [6, 12]: 40%

Substance: RMM BMC-H fused to GFP10 or GFP11 through the long linkers Lk30/27 (RMM-10/RMM-11, reference pair) N29D; A53D
percent of parent [7, 10]: 102% | percent of parent [7, 11]: 124% | percent of parent [7, 12]: 108%

Substance: RMM BMC-H with GFP10 or GFP11 at the N-terminus (N-ter tagged RMM-10/11) (natural protein)
fold drop of fluorescence against C-ter tagged RMM [8]: 3 fold

Second part, the substance after the results:

ratio of RMM versus BWI signals [2]: 2 fold | Fmax as percent of the RMM pair reference [3]: 115% | ratio of RMM versus BWI signals [4]: 15 fold
Substance: RMM BMC-H fused to GFP10 or GFP11 through the long linkers Lk30/27 (RMM-10/RMM-11, reference pair) (natural protein)

Fmax as percent of the RMM pair reference [3]: 50 to 65% | Fmax as percent of the RMM pair reference [4]: 50 to 65%
Substance: SUMO-RMM fused to GFP10 or GFP11 through the long linkers Lk30/27 (SUMO-RMM-GFP10, SUMO-RMM-GFP11)

stoichiometry N [9]: 12
Substance: SUMO-RMM-His6
